From paper PMC8046733 (Immunity, 2021) come the findings set out here.

First the molecules themselves.
B1: RM11-43 heavy-chain variant I52A (antibody, V domains shown)
VH: QVQLVQSGAEVKKPGASVKLSCKASGFTFRIYAISWVRQAPGQGLEWMGEIAPLGGITNYAQKFQGRVTITADTSTSTAYMELSSLRSEDTAVYYCARGETKMITVLAGTTGGGLDSWGQGTLVTVSS
VL: DIQMTQSPSSLSASVGDKVTITCHASQGISSWLAWYQQKPGKAPKPLIYAASSLQSGVPSRFSGGGSGADYTLTISSLQPEDFATYYCQQYDDLPRTFGQGTKVEIK
B2: RM11-43 heavy-chain variant I56A (antibody, V domains shown)
VH: B1 VH with A52I, I57A
VL: B1 VL
B3: RM11-43 heavy-chain variant L53A (antibody, V domains shown)
VH: B1 VH with A52I, L54A
VL: B1 VL
B4: RM2-01 heavy-chain variant I51A (antibody, V domains shown)
VH: QVQLVQSGAEVKKPGASVKLSCKASGFTFRIYAISWVRQAPGQGLEWMGEAVPLGGITNYAQNFQGRAAITADTSINTAYMELSSLRSDDTAVYYCARVRTALVGPREGIFDFWGQGVLVTVSS
VL: DIQMTQSPSSLSASVGDRVSITCRASQTISTYLAWYQQKPGKVPKLLIYTASTLETGVPSRFSGSGSGTEFTLTISSLQPEDFATYYCQQHDSHPYSFGQGTKVEIK
B5: RM2-01 heavy-chain variant P52aA (antibody, V domains shown)
VH: B4 VH with A51I, P53A
VL: B4 VL
B6: RM2-01 heavy-chain variant I56A (antibody, V domains shown)
VH: B4 VH with A51I, I57A
VL: B4 VL

Numbering of substitutions follows the chain as printed. Numbers in names are those of the source.

In this test the target is HCV-1 E1E2 (autologous strain) (Hepatitis C virus genotype 1a, strain …, UniProt P26664, strain). In words: ELISA.
For the molecule B1, the binding result is listed as “binds”.
Consider B2, for which the binding result is given as “binds”.
As for B3, the binding result was “binds”.
With B4, the binding result was “binds”.
Turning to B5, the binding result is given as “binds”.
For the molecule B6, the binding result is listed as “binds”.
